Biological target: Calmodulin (UniProt P0DP23 1-149)
Experiment: other fluorescence titration

Binder	Kd [µM]
DRYLAIVHPMKSRLRRT (domain or fragment) [BSAT1R_(125-141), FRET biosensor with AT1R a.a. 125-141 (SMD2) between EYFPc and ECFP]	13.9
DQALAIVHPMKSQLRQT (domain or fragment) [BSAT1R_(125-141mut), FRET biosensor with mutant AT1R a.a. 125-141 (SMD2) between EYFPc and ECFP]	> 318
YTLIWKALKKAYEIQKNK (domain or fragment) [BSAT1R_(215-232), FRET biosensor with AT1R a.a. 215-232 (part of SMD3) between EYFPc and ECFP]	1.05
YTLIWKALKKAYEIQKNKPRNDDIFKII (domain or fragment) [BSAT1R_(215-242), FRET biosensor with AT1R a.a. 215-242 (entire SMD3) between EYFPc and ECFP]	0.36
YTLIAKALKKAAEIQKNQPRNDDIAKII (domain or fragment) [BSAT1R_(215-242mut), FRET biosensor with mutant AT1R a.a. 215-242 (SMD3) between EYFPc and ECFP]	4.52
FKRYFLQLLKYIPPKAKSH (domain or fragment) [BSAT1R_(309-327), FRET biosensor with AT1R a.a. 309-327 (SMD4JM) between EYFPc and ECFP]	0.51
AKRYALQLLKAIPPKAQSH (domain or fragment) [BSAT1R_(309-327mut), FRET biosensor with mutant AT1R a.a. 309-327 (SMD4JM) between EYFPc and ECFP]	6.6
